According to US20140155581A1 (AstraZeneca / MedImmune, published 2014):

Target: T1, IGF1R (IGF1 receptor), antigen coated on the ELISA plate (UniProt P08069 31-932, limits assumed)
T1 construct: Construct not described; It may be the same histidine-tagged reagent as m8
Experiment: ELISA, antigen coated at 2 µg/mL, antibody serially diluted, anti-kappa or anti-lambda HRP detection (FIG. 10)
Method: The absorbance at 450 nm was measured using a microtiter plate reader.

T1 sequence (P08069 31-932 limits assumed): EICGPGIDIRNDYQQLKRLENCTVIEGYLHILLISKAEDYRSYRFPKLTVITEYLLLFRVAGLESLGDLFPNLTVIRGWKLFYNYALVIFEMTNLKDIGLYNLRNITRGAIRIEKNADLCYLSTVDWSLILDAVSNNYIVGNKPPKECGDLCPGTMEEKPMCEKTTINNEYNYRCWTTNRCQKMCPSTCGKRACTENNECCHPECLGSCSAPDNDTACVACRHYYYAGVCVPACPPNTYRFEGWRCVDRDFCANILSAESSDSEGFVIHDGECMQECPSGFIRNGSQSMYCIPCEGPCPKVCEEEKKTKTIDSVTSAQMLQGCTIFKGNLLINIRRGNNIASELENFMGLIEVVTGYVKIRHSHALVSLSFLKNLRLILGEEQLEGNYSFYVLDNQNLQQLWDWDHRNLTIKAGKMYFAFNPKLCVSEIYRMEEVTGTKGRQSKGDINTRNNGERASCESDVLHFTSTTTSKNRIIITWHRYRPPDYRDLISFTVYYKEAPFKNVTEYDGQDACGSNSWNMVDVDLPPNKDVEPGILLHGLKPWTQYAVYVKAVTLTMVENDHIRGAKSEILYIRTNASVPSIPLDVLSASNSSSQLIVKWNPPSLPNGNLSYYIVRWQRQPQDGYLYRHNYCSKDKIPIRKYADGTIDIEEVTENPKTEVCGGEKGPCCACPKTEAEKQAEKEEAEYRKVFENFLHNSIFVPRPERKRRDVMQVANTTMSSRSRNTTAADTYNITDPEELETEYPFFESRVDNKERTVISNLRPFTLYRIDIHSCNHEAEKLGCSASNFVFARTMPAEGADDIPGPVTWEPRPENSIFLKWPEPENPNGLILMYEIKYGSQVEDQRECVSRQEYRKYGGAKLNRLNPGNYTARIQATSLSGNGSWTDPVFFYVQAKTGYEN

B1: anti-EGFR conventional antibody (monospecific bivalent, kappa light chain; parental arm of iMab-EI) (antibody, V domains shown)
VH: QVQLQESGPGLVKPSETLSLTCTVSGGSVSSGDYYWTWIRQSPGKGLEWIGHIYYSGNTNYNPSLKSRLTISIDTSKTQFSLKLSSVTAADTAIYYCVRDRVTGAFDIWGQGTMVTVSS
VL: DIQMTQSPSSLSASVGDRVTITCQASQDISNYLNWYQQKPGKAPKLLIYDASNLETGVPSRFSGSGSGTDFTFTISSLQPEDIATYFCQHFDHLPLAFGGGTKVEIK
notes: Conventional IgG with kappa light chain; constant regions not specified; also called anti-EGFR antibody; parental arm antibody
**Q.** Does B1 bind?
**A.** no binding
